Results from patent publication US6395548.

Biological target: EPAS1 (HIF-2alpha) (Homo sapiens) (UniProt Q99814)
Assay: cell_activity
Conditions: luciferase reporter, 6 ug plasmid, BAEC; direct binding not shown

Sequence of EPAS1 (HIF-2alpha) (Homo sapiens) (Q99814 whole entry): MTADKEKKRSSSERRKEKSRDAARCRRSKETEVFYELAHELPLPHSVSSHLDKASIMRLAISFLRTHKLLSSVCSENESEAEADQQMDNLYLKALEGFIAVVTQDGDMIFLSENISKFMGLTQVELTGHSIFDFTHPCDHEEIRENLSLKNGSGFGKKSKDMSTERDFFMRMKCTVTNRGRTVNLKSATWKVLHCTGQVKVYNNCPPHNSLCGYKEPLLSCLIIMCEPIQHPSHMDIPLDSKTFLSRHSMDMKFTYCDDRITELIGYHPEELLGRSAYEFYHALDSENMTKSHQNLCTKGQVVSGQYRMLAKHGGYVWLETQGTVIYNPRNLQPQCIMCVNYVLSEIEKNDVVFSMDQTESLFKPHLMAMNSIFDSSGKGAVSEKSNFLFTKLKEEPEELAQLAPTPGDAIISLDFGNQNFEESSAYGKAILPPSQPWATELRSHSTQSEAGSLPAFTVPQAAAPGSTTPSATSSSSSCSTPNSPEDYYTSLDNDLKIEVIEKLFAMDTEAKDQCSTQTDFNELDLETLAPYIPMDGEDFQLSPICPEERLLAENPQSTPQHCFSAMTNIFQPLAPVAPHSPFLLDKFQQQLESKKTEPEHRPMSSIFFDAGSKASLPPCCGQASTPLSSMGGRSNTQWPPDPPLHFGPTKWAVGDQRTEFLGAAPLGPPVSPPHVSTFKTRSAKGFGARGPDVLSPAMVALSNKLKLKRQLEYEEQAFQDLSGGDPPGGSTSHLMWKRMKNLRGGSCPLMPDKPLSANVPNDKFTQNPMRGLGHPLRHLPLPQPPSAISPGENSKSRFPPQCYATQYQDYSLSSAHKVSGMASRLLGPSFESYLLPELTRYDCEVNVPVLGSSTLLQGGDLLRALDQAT

KDR/flk-1 promoter -4 kb to +296
activity: 12.9 fold
